Experimental data from US20240383984A1 (Genentech, published 2024).

T1: human FcRH5 protein fragment (soluble) (human, UniProt Q96RD9 16-851)
T1 construct: whole entry named; also called soluble human FcRH5; Human FcRH5 (BIACORE analyte)
T1 sequence: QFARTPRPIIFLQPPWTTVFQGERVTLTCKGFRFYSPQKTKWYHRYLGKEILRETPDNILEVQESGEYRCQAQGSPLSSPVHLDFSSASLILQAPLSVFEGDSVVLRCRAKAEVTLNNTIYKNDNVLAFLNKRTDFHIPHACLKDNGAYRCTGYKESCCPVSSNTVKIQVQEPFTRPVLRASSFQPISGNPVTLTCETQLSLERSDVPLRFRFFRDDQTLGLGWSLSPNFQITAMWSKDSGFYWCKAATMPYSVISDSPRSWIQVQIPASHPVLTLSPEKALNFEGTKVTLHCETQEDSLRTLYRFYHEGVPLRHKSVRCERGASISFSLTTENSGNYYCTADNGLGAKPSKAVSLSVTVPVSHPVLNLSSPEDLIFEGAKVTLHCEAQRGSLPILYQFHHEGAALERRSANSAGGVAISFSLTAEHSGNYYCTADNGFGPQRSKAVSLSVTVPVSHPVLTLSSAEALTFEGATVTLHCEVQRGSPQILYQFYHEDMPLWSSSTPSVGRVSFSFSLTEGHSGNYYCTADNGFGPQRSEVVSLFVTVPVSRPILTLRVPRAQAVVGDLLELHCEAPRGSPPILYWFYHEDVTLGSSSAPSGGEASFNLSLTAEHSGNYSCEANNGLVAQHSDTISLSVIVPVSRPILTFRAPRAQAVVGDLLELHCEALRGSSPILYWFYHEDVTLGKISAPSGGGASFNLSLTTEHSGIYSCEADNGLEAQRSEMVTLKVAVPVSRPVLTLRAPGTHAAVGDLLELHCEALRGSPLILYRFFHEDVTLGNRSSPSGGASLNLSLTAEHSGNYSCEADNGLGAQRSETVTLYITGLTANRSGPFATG


Key:
[1] = target: T1, human FcRH5 protein fragment (soluble); assay: BIACORE, human IgG1, soluble human FcRH5
[2] = target: T1, human FcRH5 protein fragment (soluble); assay: SPR, hIgG capture, screening
Experimental: (§1) Briefly, a human IgG capture surface was generated on a Series S CM5 chip using amine coupling and the human IgG capture kit (GE Life Sciences, Piscataway, NJ). Test antibodies were then captured on flow cells 2, 3, or 4, with flow cell 1 used as a reference. An FcRH5 protein fragment was used as the analyte, with a flow rate of […]. Between injections the capture surface was regenerated by a 30-second injection of 3M magnesium chloride or 10 mM glycine, pH 1.5. Interactions were assessed at 25° C. in 10 mM HEPES pH7.4, 150 mM NaCl, and 0.05% Tween 20 (HBSP). Reference data from the reference flow cell and from injection of buffer alone were subtracted prior to kinetic analysis. Kinetic information was calculated by fitting data to a 1:1 binding model. Reference subtraction and data fitting were performed using BIAevaluation software (GE Life Sciences, Piscataway, NJ).
(§2) For affinity screening of HVR-H2 Trp52 and Met64 variants (Table 7), antibodies were expressed by transient transfection of Expi293 cells and purified using tip columns that were custom packed with affinity resin MabSelect SuRe (Glygen Corp., Columbia, MD & GE Life Sciences, Piscataway, NJ). […] Binding of FcRH5 protein fragment to captured antibodies was monitored at 100 nM and 500 nM. Association and dissociation were monitored at a flow rate of 40 μl/min, for 180 s and 300 s, respectively.

[3] = target: T1, human FcRH5 protein fragment (soluble); assay: SPR (BIACORE), IgG captured via anti-human IgG, FcRH5 protein fragment as analyte (100 and 500 nM)
Experimental: as §1, §2

Binder	Fold improvement over hu1G7.v1 [1]	Kd [1]	Kd [2]	Kd [3]
1G7.v1C (antibody, human IgG1, V domains shown, human IgG1 with the light chain of hu1G7.v1; also called C (hu1G7.v1 heavy chain S28P)) VH: EVQLVESGPGLVKPSETLSLTCTVSGFPLTRFGVHWVRQPPGKGLEWLGVIWRGGSTDYNAAFMSRLTISKDNSKNQVSLKLSSVTAADTAVYYCSNHYYGSSDYALDNWGQGTLVTVSS VL: DIQMTQSPSSLSASVGDRVTITCKASQDVSNIVVWFQQKPGKSPKLLIYSASYRYTGVPSRFSGSGSGTDFTLTISSLQPEDFATYYCQQHYSSPYTFGQGTKVEIK	1.1 fold	13.3 nM	–	–
hu1G7.v1 heavy chain W52Y with light chain of hu1G7.v1.7 (antibody, V domains shown, human IgG) VH: EVQLVESGPGLVKPSETLSLTCTVSGFSLTRFGVHWVRQPPGKGLEWLGVIYRGGSTDYNAAFMSRLTISKDNSKNQVSLKLSSVTAADTAVYYCSNHYYGSSDYALDNWGQGTLVTVSS VL: DIQMTQSPSSLSASVGDRVTITCKASQDVRNLVVWFQQKPGKAPKLLIYSGYYRYTGVPSRFSGSGSGTDFTLTISSLQPEDFATYYCQQHYQPPYTFGQGTKVEIK	–	–	140 nM	136 nM
hu1G7.v1 heavy chain W52L with light chain of hu1G7.v1.6 (antibody, V domains shown, human IgG) VH: EVQLVESGPGLVKPSETLSLTCTVSGFSLTRFGVHWVRQPPGKGLEWLGVILRGGSTDYNAAFMSRLTISKDNSKNQVSLKLSSVTAADTAVYYCSNHYYGSSDYALDNWGQGTLVTVSS VL: DIQMTQSPSSLSASVGDRVTITCKASQDVSNIVVWFQQKPGKAPKLLIYSGYYRYSGVPSRFSGSGSGTDFTLTISSLQPEDFATYYCQQQYQPPYTFGQGTKVEIK	–	–	250 nM	250 nM
1G7.v1D (antibody, human IgG1, V domains shown, human IgG1 with the light chain of hu1G7.v1; also called D (hu1G7.v1 heavy chain L29T)) VH: EVQLVESGPGLVKPSETLSLTCTVSGFSTTRFGVHWVRQPPGKGLEWLGVIWRGGSTDYNAAFMSRLTISKDNSKNQVSLKLSSVTAADTAVYYCSNHYYGSSDYALDNWGQGTLVTVSS VL: DIQMTQSPSSLSASVGDRVTITCKASQDVSNIVVWFQQKPGKSPKLLIYSASYRYTGVPSRFSGSGSGTDFTLTISSLQPEDFATYYCQQHYSSPYTFGQGTKVEIK	2.2 fold	6.7 nM	–	–
hu1G7.v1 heavy chain W52Y with light chain of hu1G7.v1.5 (antibody, V domains shown, human IgG) VH: EVQLVESGPGLVKPSETLSLTCTVSGFSLTRFGVHWVRQPPGKGLEWLGVIYRGGSTDYNAAFMSRLTISKDNSKNQVSLKLSSVTAADTAVYYCSNHYYGSSDYALDNWGQGTLVTVSS VL: DIQMTQSPSSLSASVGDRVTITCKASQDVSNIVVWFQQKPGKSPKLLIYSGYYRYTGVPSRFSGSGSGTDFTLTISSLQPEDFATYYCQQQFQPPYTFGQGTKVEIK	–	–	180 nM	177 nM
hu1G7.v1 heavy chain W52Y with light chain of hu1G7.v1.3 (antibody, V domains shown, human IgG) VH: EVQLVESGPGLVKPSETLSLTCTVSGFSLTRFGVHWVRQPPGKGLEWLGVIYRGGSTDYNAAFMSRLTISKDNSKNQVSLKLSSVTAADTAVYYCSNHYYGSSDYALDNWGQGTLVTVSS VL: DIQMTQSPSSLSASVGDRVTITCKASQDVRNIVVWFQQKPGKAPKLLIYSGSYRYSGVPSRFSGSGSGTDFTLTISSLQPEDFATYYCQQQYSPPYTFGQGTKVEIK	–	–	640 nM	641 nM
hu1G7.v1 heavy chain W52Y with light chain of hu1G7.v1 (antibody, V domains shown, human IgG) VH: EVQLVESGPGLVKPSETLSLTCTVSGFSLTRFGVHWVRQPPGKGLEWLGVIYRGGSTDYNAAFMSRLTISKDNSKNQVSLKLSSVTAADTAVYYCSNHYYGSSDYALDNWGQGTLVTVSS VL: DIQMTQSPSSLSASVGDRVTITCKASQDVSNIVVWFQQKPGKSPKLLIYSASYRYTGVPSRFSGSGSGTDFTLTISSLQPEDFATYYCQQHYSSPYTFGQGTKVEIK	–	–	150 nM	146 nM
hu1G7.v1 heavy chain W52L with light chain of hu1G7.v1.5 (antibody, V domains shown, human IgG) VH: EVQLVESGPGLVKPSETLSLTCTVSGFSLTRFGVHWVRQPPGKGLEWLGVILRGGSTDYNAAFMSRLTISKDNSKNQVSLKLSSVTAADTAVYYCSNHYYGSSDYALDNWGQGTLVTVSS VL: DIQMTQSPSSLSASVGDRVTITCKASQDVSNIVVWFQQKPGKSPKLLIYSGYYRYTGVPSRFSGSGSGTDFTLTISSLQPEDFATYYCQQQFQPPYTFGQGTKVEIK	–	–	130 nM	125 nM
hu1G7.v1 heavy chain W52L with light chain of hu1G7.v1.3 (antibody, V domains shown, human IgG) VH: EVQLVESGPGLVKPSETLSLTCTVSGFSLTRFGVHWVRQPPGKGLEWLGVILRGGSTDYNAAFMSRLTISKDNSKNQVSLKLSSVTAADTAVYYCSNHYYGSSDYALDNWGQGTLVTVSS VL: DIQMTQSPSSLSASVGDRVTITCKASQDVRNIVVWFQQKPGKAPKLLIYSGSYRYSGVPSRFSGSGSGTDFTLTISSLQPEDFATYYCQQQYSPPYTFGQGTKVEIK	–	–	240 nM	239 nM
hu1G7.v1 heavy chain W52Y with light chain of hu1G7.v1.6 (antibody, V domains shown, human IgG) VH: EVQLVESGPGLVKPSETLSLTCTVSGFSLTRFGVHWVRQPPGKGLEWLGVIYRGGSTDYNAAFMSRLTISKDNSKNQVSLKLSSVTAADTAVYYCSNHYYGSSDYALDNWGQGTLVTVSS VL: DIQMTQSPSSLSASVGDRVTITCKASQDVSNIVVWFQQKPGKAPKLLIYSGYYRYSGVPSRFSGSGSGTDFTLTISSLQPEDFATYYCQQQYQPPYTFGQGTKVEIK	–	–	530 nM	529 nM

Further lines, results first:

Fold improvement over hu1G7.v1 [1]	Kd [1]	Kd [2]	Kd [3]	Binder
–	–	100 nM	103 nM	hu1G7.v1 heavy chain W52L with light chain of hu1G7.v1 (antibody, V domains shown, human IgG) VH: EVQLVESGPGLVKPSETLSLTCTVSGFSLTRFGVHWVRQPPGKGLEWLGVILRGGSTDYNAAFMSRLTISKDNSKNQVSLKLSSVTAADTAVYYCSNHYYGSSDYALDNWGQGTLVTVSS VL: DIQMTQSPSSLSASVGDRVTITCKASQDVSNIVVWFQQKPGKSPKLLIYSASYRYTGVPSRFSGSGSGTDFTLTISSLQPEDFATYYCQQHYSSPYTFGQGTKVEIK
–	–	130 nM	131 nM	hu1G7.v1 heavy chain W52Y with light chain of hu1G7.v1.4 (antibody, V domains shown, human IgG) VH: EVQLVESGPGLVKPSETLSLTCTVSGFSLTRFGVHWVRQPPGKGLEWLGVIYRGGSTDYNAAFMSRLTISKDNSKNQVSLKLSSVTAADTAVYYCSNHYYGSSDYALDNWGQGTLVTVSS VL: DIQMTQSPSSLSASVGDRVTITCKASQDVRNLVVWFQQKPGKAPKLLIYSGSYRYSGVPSRFSGSGSGTDFTLTISSLQPEDFATYYCQQHYSPPYTFGQGTKVEIK
–	–	27 nM	27.4 nM	hu1G7.v87 (antibody, V domains shown, Human IgG) VH: EVQLVESGPGLVKPSETLSLTCTVSGFSLTRFGVHWVRQPPGKGLEWLGVIWRGGSTDYNAAFVSRLTISKDNSKNQVSLKLSSVTAADTAVYYCSNHYYGSSDYALDNWGQGTLVTVSS VL: DIQMTQSPSSLSASVGDRVTITCKASQDVSNIVVWFQQKPGKSPKLLIYSASYRYTGVPSRFSGSGSGTDFTLTISSLQPEDFATYYCQQHYSSPYTFGQGTKVEIK
–	–	90 nM	89.8 nM	hu1G7.v1 heavy chain W52H with light chain of hu1G7.v1.7 (antibody, V domains shown, human IgG) VH: EVQLVESGPGLVKPSETLSLTCTVSGFSLTRFGVHWVRQPPGKGLEWLGVIHRGGSTDYNAAFMSRLTISKDNSKNQVSLKLSSVTAADTAVYYCSNHYYGSSDYALDNWGQGTLVTVSS VL: DIQMTQSPSSLSASVGDRVTITCKASQDVRNLVVWFQQKPGKAPKLLIYSGYYRYTGVPSRFSGSGSGTDFTLTISSLQPEDFATYYCQQHYQPPYTFGQGTKVEIK
–	–	130 nM	129 nM	hu1G7.v1 heavy chain W52L with light chain of hu1G7.v1.7 (antibody, V domains shown, human IgG) VH: EVQLVESGPGLVKPSETLSLTCTVSGFSLTRFGVHWVRQPPGKGLEWLGVILRGGSTDYNAAFMSRLTISKDNSKNQVSLKLSSVTAADTAVYYCSNHYYGSSDYALDNWGQGTLVTVSS VL: DIQMTQSPSSLSASVGDRVTITCKASQDVRNLVVWFQQKPGKAPKLLIYSGYYRYTGVPSRFSGSGSGTDFTLTISSLQPEDFATYYCQQHYQPPYTFGQGTKVEIK
–	–	92 nM	92 nM	hu1G7.v1 heavy chain W52L with light chain of hu1G7.v1.4 (antibody, V domains shown, human IgG) VH: EVQLVESGPGLVKPSETLSLTCTVSGFSLTRFGVHWVRQPPGKGLEWLGVILRGGSTDYNAAFMSRLTISKDNSKNQVSLKLSSVTAADTAVYYCSNHYYGSSDYALDNWGQGTLVTVSS VL: DIQMTQSPSSLSASVGDRVTITCKASQDVRNLVVWFQQKPGKAPKLLIYSGSYRYSGVPSRFSGSGSGTDFTLTISSLQPEDFATYYCQQHYSPPYTFGQGTKVEIK
